In patent US5597569A (priority 1994, dated 1997):
Read-outs that look alike come from different tables or passages of the source.

Key:
[1] = test system: protein synthesis in rabbit reticulocyte lysate
[2] = test system: liver; conditions: for liver lesions: histochemical analysis
[3] = test system: mice; conditions: for % Survival / LD50: mice; for % Survival: >14 days; for LD50: single dose
[4] = test system: H3396 cell membranes (BR96 antigen); assay type: binding, human; conditions: FIG. 10; ELISA, 10 μg/ml H3396 membranes
[5] = test system: protein synthesis in rabbit reticulocyte lysate with wheat germ ribosomes; conditions: cited from earlier work
[6] = test system: mice; conditions: intraperitoneal, literature; cited from earlier work

B1: gelonin: a type 1 ribosome-inhibiting protein (protein)
chain: GLDTVSFSTKGATYITYVNFLNELRVKLKPEGNSHGIPLLRKKCDDPGKCFVLVALSNDNGQLAEIAIDVTSVYVVGYQVRNRSYFFKDAPDAAYEGLFKNTIKTRLHFGGSYPSLEGEKAYRETTDLGIEPLRIGIKKLDENAIDNYKPTEIASSLLVVIQMVSEAARFTFIENQIRNNFQQRIRPANNTISLENKWGKLSFQIRTSGANGMFSEAVELERANGKKYYVTAVDQVKPKIALLKFVDKDPK
[1]
  EC50: 0.049 nM

B2: bryodin 2: novel type I ribosome-inactivating protein of about 27,000 daltons isolated from the roots of Bryonia dioica (SEQ ID NO: 15) (protein)
chain: MRSIGFYSVLALYVGAHVTEDVDINFSLIGATGATYKTFIRNLRTKLTVGTPRVYDIPVLRNAAAGLARFQLVTLTNYNGESVTVALDVVNVYVVAYRAGNTAYFLADASTEANNVLFAGINHVRLPYGGNYDGLETAAGRISRENIELGFSEISSAIGNMFRHNPGTSVPRAFIVIIQTVSEAARFKYIEQRVSENVGTKFKPDPAFLSLQNAWGSLSEQIQIAQTRGGEFARPVELRTVSNTPTFVTNVNSPVVKGIALLLYFRVNVGTDNVFAMSLSTY
[1]
  EC50: 0.017 nM
[2]; blood chemistry, data not shown
  liver protein in blood chemistry screen: increased liver protein
[2]
  liver lesions: showed liver lesions
[2]; listed as BD2
  liver lesions: presence of liver lesions
[2]; injected mice
  SGOT: elevated
  SGPT: elevated
[2]; necropsy
  cause of death at lethal dose: liver toxicity was the cause of death
[3]; i.p. and i.v.
  toxicity to mice relative to bryodin 1: slightly more toxic to mice than bryodin 1
[3]; i.p., 7 mg/kg
  % Survival: 100%
[3]; i.p., 8 mg/kg
  % Survival: 50%
[3]; i.p., 10 mg/kg
  % Survival: 0%
[3]; i.p., 12 mg/kg
  % Survival: 0%
[3]; i.v., 5 mg/kg
  % Survival: 100%
[3]; i.v., 6 mg/kg
  % Survival: 100%
[3]; i.v., 7 mg/kg
  % Survival: 100%
[3]; i.v., 8 mg/kg
  % Survival: 75%
[3]; i.v., 10 mg/kg
  % Survival: 75%
[3]; i.v., 12 mg/kg
  % Survival: 0%
[3]; i.v., 14 mg/kg
  % Survival: 0%
[3]; intraperitoneal
  LD50: 8 mg/kg
[3]; intraperitoneal, listed as BD2
  LD50: about 8 mg/kg
[3]; intravenous
  LD50: greater than 10 mg/kg
[4]
  binding to H3396 membranes: no detectable binding

B3: bryodin 1: type I ribosome-inactivating protein from the root of Bryonia dioica; 29 kDa band identical to the bryodin described by Stirpe (protein)
chain: DVSFRLSGATTTSYGVFIKNLREALPYERKVYNIPLLRSSISGSGRYTLLHLTNYADETISVAVDVTNVYIMGYLAGDVSYFFNEASATEAAKFVFKDAKKKVTLPYSGNYERLQTAAGKIRENIPLGLPALDSAITTLYYYTASSAASALLVLIQSTAESARYKFIEQQIGKRVDKTFLPSLATISLENNWSALSKQIQIASTNNGQFESPVVLIDGNNQRVSITNASARVVTSNIALLLNRNNIA
[5]
  ID50, inhibition of protein synthesis: 3.6 ng/mL
[3]; i.p., 10 mg/kg
  % Survival: 100%
[3]; i.p., 12 mg/kg
  % Survival: 100%
[3]; i.p., 14 mg/kg
  % Survival: 100%
[3]; i.p., 16 mg/kg
  % Survival: 100%
[3]; i.v., 12 mg/kg
  % Survival: 100%
[3]; i.v., 16 mg/kg
  % Survival: 100%
[3]; i.v., 18 mg/kg
  % Survival: 100%
[3]; i.v., 20 mg/kg
  % Survival: 100%
[4]
  binding to H3396 membranes: no detectable binding
[6]
  LD50: 14.5 mg/kg
